Data on one substance can be found in PMC10866885.

Assay [1] concerns the target wild-type human VEGFR1 fused to mCherry (human) (UniProt P17948).
Assay [2] deals with VEGFR1 C471R mutant fused to mCherry (human) (UniProt P17948).

Take VEGF165 (ligand): the diffusion coefficient (D confocal) of VEGFR1-mCherry on the plasma membrane of CHO cells by FRAP after 100 nM VEGF165, read as receptor dimerization in assay [1] came to 0.018 µm^2 s^−1. Further, the diffusion coefficient (D confocal) of VEGFR1 C471R-mCherry on the plasma membrane of CHO cells by FRAP after 100 nM VEGF165, read as receptor dimerization in assay [2] came to 0.017 µm^2 s^−1.
